This note sets out measurements from patent US20190062438A1 (CSL, published 2019).

Experiment [1] deals with T1, soluble Homo sapiens CD131 comprising a C-terminal 6xHis tag (human, UniProt P32927 17-438).
T1 construct: truncated after Ser438, C-terminal 6xHis; also called shCD131; shβc
T1 sequence: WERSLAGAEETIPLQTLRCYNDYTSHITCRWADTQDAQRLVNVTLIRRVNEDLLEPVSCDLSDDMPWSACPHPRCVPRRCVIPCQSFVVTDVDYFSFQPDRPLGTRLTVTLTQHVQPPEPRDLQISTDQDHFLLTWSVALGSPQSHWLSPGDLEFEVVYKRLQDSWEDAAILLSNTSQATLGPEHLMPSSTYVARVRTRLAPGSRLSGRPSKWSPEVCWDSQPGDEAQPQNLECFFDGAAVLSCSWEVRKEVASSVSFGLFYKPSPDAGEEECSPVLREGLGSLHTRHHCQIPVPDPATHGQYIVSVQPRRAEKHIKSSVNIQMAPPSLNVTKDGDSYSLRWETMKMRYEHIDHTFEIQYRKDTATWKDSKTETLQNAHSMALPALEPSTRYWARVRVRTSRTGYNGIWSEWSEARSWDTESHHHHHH
The experiment is described as follows: SPR, kinetics, Fab over captured shCD131.

The target of experiment [2] is T2, shCD131 S102A (human, UniProt P32927 17-438).
T2 construct: C-terminal 6xHis
T2 sequence: T1 sequence with S86A
The experiment is described as follows: SPR, steady state, Fab over captured mutant. The procedure: (§1) For some analysis purified Fab was injected over each flow cell for 3 minutes and dissociation was monitored for a further 10 minutes. Regeneration of the surface was performed after each cycle with a 40 second injection of 25 mM glycine, pH 2.0. The analysis was performed with Fabs at several concentrations between 100 and 0.31 nM, with each concentration analyzed twice and in random order. The analysis was performed at a flow rate of 30 μl/min in HBS-EP buffer (10 mM Hepes, 150 mM NaCl, 3 mM EDTA, 0.005% Tween 20, pH 7.4) at 37° C. Responses from spots 2 and 4 of each flow cell, (in which shβc was not captured, but otherwise treated identically), were subtracted from those of spots 1 and 5 respectively to produce reference subtracted data. Reference subtracted responses from a blank injection comprising buffer alone were subtracted from the resultant sensorgrams to produce double referenced data suitable for kinetic analysis. Double-referenced sensorgrams were fitted using non-linear regression to a model describing 1:1 kinetics, including a term for mass transport limitation. The Rₘₐₓ value was fitted locally to account for slight deviations in the level of sCD131 captured, with association rate (kₐ), dissociation rate (kd) and equilibrium dissociation constant (KD) fitted globally.
(§2) Mapping of the shCD131 epitope was performed by measurement of the affinity of Fabs for various alanine point mutants of shCD131 essentially as described above, with the following exceptions. Each shCD131 mutant was captured for 120 seconds at concentrations between 1 and 5 μg/ml. For kinetic analysis, purified recombinant Fabs were injected for 2 minutes, and dissociation was monitored for a further 2 minutes. […] Fab concentrations ranged from 16 μM to 3.9 nM in two-fold dilutions. The assays were conducted at 25° C. All sensorgrams were reference subtracted as described above. For determination of steady-state affinity (KD only), the response at the end of the binding phase was used to fit the data to a single-site binding model. Kinetic parameters were determined as described above.
A general note: SPR reads the build-up and loss of mass on a sensor chip optically.

In experiment [3] the target is T3, shCD131 T40A (human, UniProt P32927 17-438).
T3 construct: C-terminal 6xHis
T3 sequence: T1 sequence with T24A
The experiment is described as follows: SPR, steady state, Fab over captured mutant. The procedure: as §1, §2

Experiment [4] addresses T4, shCD131 T106A (human, UniProt P32927 17-438).
T4 construct: C-terminal 6xHis
T4 sequence: T1 sequence with T90A
The experiment in a line: SPR, Fab over captured mutant. The procedure:
as §1, with “Double-referenced sensorgrams were fitted using non-linear regression to a model describing 1:1 kinetics, including a term for mass transport limitation. The Rₘₐₓ value was fitted locally to account for slight deviations in the level of sCD131 captured, with association rate (kₐ), dissociation rate (kd) and equilibrium dissociation constant (KD) fitted globally.” left out
Mapping of the shCD131 epitope was performed by measurement of the affinity of Fabs for various alanine point mutants of shCD131 essentially as described above, with the following exceptions. […] For kinetic analysis, purified recombinant Fabs were injected for 2 minutes, and dissociation was monitored for a further 2 minutes. […] Kinetic parameters were determined as described above.

Where a chain is given by its changes, count along the chain named.

B1: 9A2 Fab (Fab, V domains shown)
VH: EVQLLESGGGLVQPGGSLRLSCAASGFTFSHYHMLWVRQAPGKGLEWVSSIRSSGGFTYYADSVKGRFTISRDNSKNTLYLQMNSLRAEDTAVYYCARFYDSFFDIWGQGTMVTVSS
VL: DIQMTQSPSSVSASVGDRVTITCRASQGISSWLAWYQQKPGKAPKLLIYAASSLQSGVPSRFSGSGSGTDFTLTISSLQPEDFATYYCQQANSFPITFGQGTRLEIKR
notes: also called recombinant Fab of 9A2
What is called Kd is the equilibrium constant for the complex coming apart. Low values mean a tighter complex, high ones a looser complex. Consider B1, for which the Kd turned out to be 49 nM in experiment [1], 324 nM in experiment [2] and 236 nM in experiment [3]. In experiment [4], the “fold increase in affinity relative to WT shCD131” value was approximately 10 fold.
